B1: RSPH3 (parent)
chain: LELQRQREARKRALARKQAQEQLR
B2: OAS1 (parent)
chain: LTVYAWERGSMKTHFNTAQGFRTV

Variants of: B1
Test: protein stability index of a GFP-peptide fusion (GPS, HEK-293T) (PSI 1-6); higher = more stable
Conditions: c terminus: a fixed tail appended
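Note: lentivirally expressed fusions sorted by FACS into six bins by GFP to DsRed ratio, PSI derived from sequencing read proportions per bin multiplied by bin number.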

Protein stability index: each site, then its substitutions
Q6: V 3.37
A13: I 3.76
R24: N 4.23
R16: F 3.43, S 3.27
A19: V 3.27
A15: D 3.94, Y 3.61
R7: W 3.46
Q18: V 2.56
L3: R 3.54
R12: A 4.23
R5: W 4.02, T 4.17
L14: W 2.65

Variants of: B2
Test: as above
Conditions: c terminus: a fixed tail appended

Protein stability index: each site, then its substitutions
E7: P 2.46, N 1.99, Y 1.92, M 3.48, S 2.76, K 2.28, V 3.45, H 2.41, W 1.98, R 2.05, I 2.63, T 3.32, Q 3.28, F 2.85, L 3.71, C 3.64, A 3.15, D 2.14, G 2.18
L1: K 2.17, T 2.09, W 2.79, G 2.31, H 2.13, N 2, E 2.17, C 1.74, Y 2.19, I 1.71, A 2.32, M 2.57, R 2.28, P 2.14, V 1.5, S 2.1, D 2.26, F 2.48, Q 1.79
A18: K 2.67, E 1.54, L 4.32, C 1.88, D 4.02, I 4.47, M 2.79, G 2.64, H 3.09, F 2.56, N 2.63
T17: F 2.25, C 1.78, H 2.95, W 2.1, S 3.12, P 2.2, Y 2.64, D 2.33, R 2.38, G 2.67, M 1.74, L 2.17, K 2.48, A 1.69, N 1.72, I 3.17, Q 4.87, E 1.61
A5: Q 1.54, P 2.19, C 3.68, H 1.69, N 2.29, L 2.8, Y 3.25, M 2.06, V 2.34, S 1.91, R 2.9, G 2.14, T 2.75, K 1.63, E 2.46, D 2.59
H14: F 2.8, R 3.04, I 2.29, D 2.33, G 1.69, T 2.86, M 3.15, W 2.76, V 3.57, N 1.74, P 2.56, Q 1.75, L 2.88, K 2.35, Y 2.75, E 2.42, S 2.44
S10: I 1.91, P 1.54, F 2.93, H 2.71, R 2.08, L 2, D 1.75, M 2.46, Q 1.99, Y 3.69, E 3.28, N 2.53, A 2.05, C 2.82, V 2.62, G 2.28
Y4: D 2.09, N 1.94, A 2.01, L 2.55, C 1.38, S 1.83, K 2.16, R 1.77, M 1.51, G 2.76, P 2.31, I 3.51, E 1.97, W 1.19, H 1.66, Q 1.86, T 1.59, F 2.96
G9: N 2.48, D 2.6, W 2.69, F 3.19, I 1.86, Q 1.87, C 3.73, P 3.81, E 2.7, S 2.49, K 1.8, M 2.85, Y 2.93, L 2.91, H 1.61, T 2.55, R 2.02
N16: D 1.66, G 3.06, C 2.63, S 3.5, L 2.23, Y 1.95, H 2.69, K 3.06, F 3.37, W 3.85, V 3.22, T 2.45, Q 2.83, M 3.47, R 1.53, A 3.67, E 2.21
T2: V 2.23, N 1.84, L 2.7, G 1.25, P 1.93, Y 2.45, I 2.45, S 2.21, D 1.8, W 2.55, R 2.04, H 2.11, E 1.91, F 3.19, M 1.69, K 2.87, Q 1.86, C 1.6, A 2.03
R8: M 2.73, Q 2.56, F 2.26, G 2.33, C 1.85, E 2.4, H 2.13, S 2.55, V 2.77, L 3.07, K 1.53, W 2.69, N 2.65, A 2.38, I 2.15, T 3.1, P 4.46, Y 3.38, D 2.89
F15: H 2.39, M 2.26, L 2.21, R 2.93, P 1.52, Q 1.53, A 2.35, V 2.08, C 1.96, E 2.27, I 2.88, G 1.61, D 2.47, Y 2.28, K 2.01, W 2.62, T 1.9, N 1.55, S 2.49
K12: E 2.22, Y 2.49, D 2.29, A 3.08, H 2.87, F 1.8, I 2.98, T 2.98, N 2.66, V 2.45, G 1.54, C 3.27, Q 2.43, S 4.72, W 2.8, M 3.75, R 1.51, P 5.14, L 2.72
W6: F 2.89, D 1.87, Y 1.9, M 3.17, N 2.06, G 1.73, E 2.23, P 1.69, T 2.45, R 1.44, K 1.53, I 2.41, C 1.61, A 1.86, H 2.2, S 1.59, L 2.63, V 2.29, Q 1.66
M11: C 3.65, N 2.06, I 1.97, G 3.37, H 2.31, E 2.27, P 1.85, Y 3.28, V 2.09, D 2.21, A 1.75, Q 2.14, R 2.16, S 2.19, K 2.38, L 1.51, T 2.09, F 2.49
V3: D 2.57, W 2.92, E 2.09, F 3.04, Y 2.7, H 2.36, K 2.12, A 2.24, N 2.05, S 2.12, L 2.49, T 1.96, C 2.02, R 2.46, I 3.14, Q 2.09, P 1.77, G 1.91, M 2.16
T13: M 3.37, K 1.51, Q 2.06, E 2.06, D 2.74, L 2.99, Y 3.56, I 2.75, R 1.64, S 2.01, C 1.13, W 3.26, N 2.25, F 3.1, V 2.68, A 2.88, G 2.33, P 2.06, H 1.83

Source: the supplement of paper PMC10567573
